Molecular target: the molecule itself
Assay: cryo-EM structure

B1: mycobacterial proteasome ATPase (Mpa), Mycobacterium tuberculosis, wild type (enzyme)
chain: MGESERSEAFGIPRDSPLSSGDAAELEQLRREAAVLREQLENAVGSHAPTRSARDIHQLEARIDSLAARNSKLMETLKEARQQLLALREEVDRLGQPPSGYGVLLATHDDDTVDVFTSGRKMRLTCSPNIDAASLKKGQTVRLNEALTVVEAGTFEAVGEISTLREILADGHRALVVGHADEERVVWLADPLIAEDLPDGLPEALNDDTRPRKLRPGDSLLVDTKAGYAFERIPKAEVEDLVLEEVPDVSYADIGGLSRQIEQIRDAVELPFLHKELYREYSLRPPKGVLLYGPPGCGKTLIAKAVANSLAKKMAEVRGDDAHEAKSYFLNIKGPELLNKFVGETERHIRLIFQRAREKASEGTPVIVFFDEMDSIFRTRGTGVSSDVETTVVPQLLSEIDGVEGLENVIVIGASNREDMIDPAILRPGRLDVKIKIERPDAEAAQDIYSKYLTEFLPVHADDLAEFDGDRSACIKAMIEKVVDRMYAEIDDNRFLEVTYANGDKEVMYFKDFNSGAMIQNVVDRAKKNAIKSVLETGQPGLRIQHLLDSIVDEFAENEDLPNTTNPDDWARISGKKGERIVYIRTLVTGKSSSASRAIDTESNLGQYL
- stoichiometry N: 6
